Measured values taken from PMC5097169, “Acetylation of histone H4 lysine 5 and 12 is required for CENP-A deposition into centromeres” (Nature Communications, 2016).

Target: T1, Flag RbAp46 (Xenopus, recombinant) (Xenopus, UniProt Q8AVH1 1-425)
T1 construct: RbAp46, Xenopus (xRbAp46); also called xRbAp46
Experiment: pull-down; GST-histone tails coupled to NHS Sepharose (20 μl resin) with 0.7 μg Hat1, RbAp46 or RbAp48, or RbAp46 with Hat1, in 150 μl 20 mM K-HEPES pH 7.4, 50 mM KCl, 0.1% Tween-20, 5 mM DTT; 2 h at 4 °C; washes with 300 mM KCl; coomassie-stained gel
Conditions: both partners purified

T1 sequence (Q8AVH1 whole entry): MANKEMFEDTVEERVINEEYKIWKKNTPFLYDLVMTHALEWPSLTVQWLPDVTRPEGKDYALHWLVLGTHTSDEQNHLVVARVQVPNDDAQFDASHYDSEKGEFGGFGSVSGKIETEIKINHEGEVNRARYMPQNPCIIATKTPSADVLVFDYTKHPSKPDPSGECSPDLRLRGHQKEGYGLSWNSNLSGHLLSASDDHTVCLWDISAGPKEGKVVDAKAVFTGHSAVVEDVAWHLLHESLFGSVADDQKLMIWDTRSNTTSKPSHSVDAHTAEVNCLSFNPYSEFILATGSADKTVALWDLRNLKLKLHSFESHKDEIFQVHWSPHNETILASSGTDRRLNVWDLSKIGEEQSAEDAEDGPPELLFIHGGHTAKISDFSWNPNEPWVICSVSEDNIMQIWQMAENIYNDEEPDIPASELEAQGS

binding result: binds
B1: GST fusion to Xenopus laevis CENP-A amino terminus (amino acids 1–50) (domain or fragment, UniProt Q569M3 1-50, looked up)
chain: MRPGSTPPSRRKSRPPRRVSPPLPTTSRTSPRRPHAQQQRRASRASPKKR
notes: CENP-A, Xenopus laevis, amino terminus, amino acids 1–50, in pGEX-6P-1; also called GST-CENP-A N-terminal tail; xCENP-A N-terminus
